Data from IntAct's records for PubMed 26749241.

B1: Succinate dehydrogenase [ubiquinone] iron-sulfur subunit, mitochondrial (Homo sapiens), P21912 (parent)
chain: MAAVVALSLRRRLPATTLGGACLQASRGAQTAAATAPRIKKFAIYRWDPDKAGDKPHMQTYEVDLNKCGPMVLDALIKIKNEVDSTLTFRRSCREGICGSCAMNINGGNTLACTRRIDTNLNKVSKIYPLPHMYVIKDLVPDLSNFYAQYKSIEPYLKKKDESQEGKQQYLQSIEEREKLDGLYECILCACCSTSCPSYWWNGDKYLGPAVLMQAYRWMIDSRDDFTEERLAKLQDPFSLYRCHTIMNCTRTCPKGLNPGKAIAEIKKMMATYKEKKASV
partner: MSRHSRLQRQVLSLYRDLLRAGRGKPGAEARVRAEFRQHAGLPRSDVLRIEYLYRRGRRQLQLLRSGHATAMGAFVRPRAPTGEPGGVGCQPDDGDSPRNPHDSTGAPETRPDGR
B2: Succinate dehydrogenase assembly factor 1, mitochondrial (Homo sapiens), A6NFY7 (parent)
chain: B1 partner
partner: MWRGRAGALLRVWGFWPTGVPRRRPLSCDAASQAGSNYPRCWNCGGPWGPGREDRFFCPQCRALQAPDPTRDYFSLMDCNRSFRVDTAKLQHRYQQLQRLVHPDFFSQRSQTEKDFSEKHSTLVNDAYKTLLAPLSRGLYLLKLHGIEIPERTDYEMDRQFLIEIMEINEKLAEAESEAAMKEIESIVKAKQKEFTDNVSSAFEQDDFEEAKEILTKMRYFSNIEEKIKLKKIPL
B3: Succinate dehydrogenase assembly factor 1, mitochondrial (Homo sapiens), A6NFY7 (parent)
chain: B1 partner
partner: B1 chain

Variants of: B1
Settings: with sdhf1_human SDHAF1, A6NFY7

effect of a mutation on the interaction	Variant
increasing interaction strength	MAAVVALSLRRRLPATTLGGACLQASRGAQTAAATAPRIKKFAIYRWDPDKAGDKPHMQTYEVDLNKCGPMVLDALIKIKNEVDSTLTFRRSCREGICGSCAMNINGGNTLACTRRIDTNLNKVSKIYPLPHMYVIKDLVPDLSNFYAQYKSIEPYLKKKDESQEGKQQYLQSIEEAEAAAGLYECILCACCSTSCPSYWWNGDKYLGPAVLMQAYRWMIDSRDDFTEERLAKLQDPFSLYRCHTIMNCTRTCPKGLNPGKAIAEIKKMMATYKEKKASV [R177A;K179A;L180A;D181A]
disrupting interaction strength	MAAVVALSLRRRLPATTLGGACLQASRGAQTAAATAPRIKKFAIYRWDPDKAGDKPHMQTYEVDLNKCGPMVLDALIKIKNEVDSTLTFRRSCREGICGSCAMNINGGNTLACTRRIDTNLNKVSKIYPLPHMYVIKDLVPDLSNAAAAAASAEPYLKKKDESQEGKQQYLQSIEEREKLDGLYECILCACCSTSCPSYWWNGDKYLGPAVLMQAYRWMIDSRDDFTEERLAKLQDPFSLYRCHTIMNCTRTCPKGLNPGKAIAEIKKMMATYKEKKASV [F146A;Y147A;Q149A;Y150A;K151A;I153A]
decreasing interaction strength	MAAVVALSLRRRLPATTLGGACLQASRGAQTAAATAPRIKKFAIYRWDPDKAGDKPHMQTYEVDLNKCGPMVLDALIKIKNEVDSTLTFRRSCREGICGSCAMNINGGNTLACTRRIDTNLNKVSKIYPLPHMYVIKDLVPDLSNAYAQYKSIEPYLKKKDESQEGKQQYLQSIEEREKLDGLYECILCACCSTSCPSYWWNGDKYLGPAVLMQAYRWMIDSRDDFTEERLAKLQDPFSLYRCHTIMNCTRTCPKGLNPGKAIAEIKKMMATYKEKKASV [F146A]
increasing interaction strength	MAAVVALSLRRRLPATTLGGACLQASRGAQTAAATAPRIKKFAIYRWDPDKAGDKPHMQTYEVDLNKCGPMVLDALIKIKNEVDSTLTFRRSCREGICGSCAMNINGGNTLACTRRIDTNLNKVSKIYPLPHMYVIKDLVPDLSNFYAQYKSIEPYLKKKDESQEGKQQYAAAIEEREKLDGLYECILCACCSTSCPSYWWNGDKYLGPAVLMQAYRWMIDSRDDFTEERLAKLQDPFSLYRCHTIMNCTRTCPKGLNPGKAIAEIKKMMATYKEKKASV [L171A;Q172A;S173A]
disrupting interaction strength	MAAVVALSLRRRLPATTLGGACLQASRGAQTAAATAPRIKKFAIYRWDPDKAGDKPHMQTYEVDLNKCGPMVLDALIKIKNEVDSTLTFRRSCREGICGSCAMNINGGNTLACTRRIDTNLNKVSKIYPLPHMYVIKDLVPDLSNFYAQYKSIEPYLKKKDESQEGKQQYLQSIEEREKLDGAAACILCACCSTSCPSYWWNGDKYLGPAVLMQAYRWMIDSRDDFTEERLAKLQDPFSLYRCHTIMNCTRTCPKGLNPGKAIAEIKKMMATYKEKKASV [L183A;Y184A;E185A]
disrupting interaction strength	MAAVVALSLRRRLPATTLGGACLQASRGAQTAAATAPRIKKFAIYRWDPDKAGDKPHMQTYEVDLNKCGPMVLDALIKIKNEVDSTLTFRRSCREGICGSCAMNINGGNTLACTRRIDTNLNKVSKIYPLPHMYVIKDLVPDLSNFYAQYKSIEPYLKKKDESQEGKQQYLQSIEEREKLDGLYECILCACCSTSCPAAAAAGDKYLGPAVLMQAYRWMIDSRDDFTEERLAKLQDPFSLYRCHTIMNCTRTCPKGLNPGKAIAEIKKMMATYKEKKASV [S198A;Y199A;W200A;W201A;N202A]

Variants of: B2
Settings: with hsc20_human HSCB

effect of a mutation on the interaction	Variant
disrupting interaction strength	MSRHSRLQRQVLSAAADLLRAGRGKPGAEARVRAEFRQHAGLPRSDVLRIEYLYRRGRRQLQLLRSGHATAMGAFVRPRAPTGEPGGVGCQPDDGDSPRNPHDSTGAPETRPDGR
with no effect	MSRHSRLQRQVLSLYRDLLRAGRGKPGAEARVRAEFRQHAGLPRSDVLRIEYLYRRRRRQLQLLRSGHATAMGAFVRPRAPTGEPGGVGCQPDDGDSPRNPHDSTGAPETRPDGR
decreasing interaction strength	MSRHSRLQRQVLSLYRDLLRAGRGKPGAEARVRAEFRQHAGLPRSDVLRIESLYRDGRRQLQLLRSGHATAMGAFVRPRAPTGEPGGVGCQPDDGDSPRNPHDSTGAPETRPDGR
with no effect	MSRHSRLQRQVLSVFKDLLRAGRGKPGAEARVRAEFRQHAGLPRSDVLRIEYLYRRGRRQLQLLRSGHATAMGAFVRPRAPTGEPGGVGCQPDDGDSPRNPHDSTGAPETRPDGR
with no effect	MSRHSRLQRQVLSLYRDLLRAGRGKPGAEARVRAEFRQHAGLPRSDVLRIEYLYPRGRRQLQLLRSGHATAMGAFVRPRAPTGEPGGVGCQPDDGDSPRNPHDSTGAPETRPDGR
with no effect	MSRHSRLQRQVLSLYRDLLRAGRGKPGAEARVRAEFRQHAGLPRSDVLRIEYAAARGRRQLQLLRSGHATAMGAFVRPRAPTGEPGGVGCQPDDGDSPRNPHDSTGAPETRPDGR
disrupting interaction strength	MSRHSRLQRQVLYLYRRLLRAGRGKPGAEARVRAEFRQHAGLPRSDVLRIEYLYRRGRRQLQLLRSGHATAMGAFVRPRAPTGEPGGVGCQPDDGDSPRNPHDSTGAPETRPDGR

Variants of: B3
Settings: with sdhb_human SDHB

effect of a mutation on the interaction	Variant
decreasing interaction strength	MSRHSRLQRQVLSLYRDLLRAGRGKPGAEARVRAEFRQHAGLPRSDVLRIEYLYRAAAAQLQLLRSGHATAMGAFVRPRAPTGEPGGVGCQPDDGDSPRNPHDSTGAPETRPDGR
disrupting interaction strength	MSRHSRLQRQVLSLYRDLLRAGRGKPGAEARVRAEFRQHAGLPRSDVLRIEYAAARGRRQAQLAASGHATAMGAFVRPRAPTGEPGGVGCQPDDGDSPRNPHDSTGAPETRPDGR
disrupting interaction strength	MSRHSRLQRQVLSLYRDLLRAGRGKPGAEARVRAEFRQHAGLPRSDVLRIEYAAAAAAAQLQLLRSGHATAMGAFVRPRAPTGEPGGVGCQPDDGDSPRNPHDSTGAPETRPDGR
decreasing interaction strength	MSRHSRLQRQVLSLYRDLLRAGRGKPGAEARVRAEFRQHAGLPRSDVLRIEYLYRRGRRQAQLAASGHATAMGAFVRPRAPTGEPGGVGCQPDDGDSPRNPHDSTGAPETRPDGR

Variants of: B3
Settings: with sdhb_human SDHB
Remark: another data set of the same source

effect of a mutation on the interaction	Variant
decreasing interaction strength	MSRHSRLQRQVLSLYRDLLRAGRGKPGAEARVRAEFRQHAGLPRSDVLRIEYAAARGRRQLQLLRSGHATAMGAFVRPRAPTGEPGGVGCQPDDGDSPRNPHDSTGAPETRPDGR
disrupting interaction strength	MSRHSRLQRQVLSLYRDLLRAGRGKPGAEARVRAEFRQHAGLPRSDVLRIEYLYRRRRRQLQLLRSGHATAMGAFVRPRAPTGEPGGVGCQPDDGDSPRNPHDSTGAPETRPDGR
decreasing interaction strength	MSRHSRLQRQVLSLYRDLLRAGRGKPGAEARVRAEFRQHAGLPRSDVLRIEYLYPRGRRQLQLLRSGHATAMGAFVRPRAPTGEPGGVGCQPDDGDSPRNPHDSTGAPETRPDGR
with no effect	MSRHSRLQRQVLSAAADLLRAGRGKPGAEARVRAEFRQHAGLPRSDVLRIEYLYRRGRRQLQLLRSGHATAMGAFVRPRAPTGEPGGVGCQPDDGDSPRNPHDSTGAPETRPDGR
